From patent publication US20190040127A1 (University of California, published 2019)
Positions count from the first letter of the chain named. Values belong to the binder of their own block, whether it stands above or below them.

Tests used:
[1] = molecular target: T1, Epithelial Membrane Protein 2 (EMP2) (human, UniProt P54851 1-167); experiment: flow cytometry on SUM149 cells, nonlinear regression (FIG. 4)
T1 construct: Endogenous EMP2 on SUM149 or MDA-MB-468 breast cancer cells
T1 sequence: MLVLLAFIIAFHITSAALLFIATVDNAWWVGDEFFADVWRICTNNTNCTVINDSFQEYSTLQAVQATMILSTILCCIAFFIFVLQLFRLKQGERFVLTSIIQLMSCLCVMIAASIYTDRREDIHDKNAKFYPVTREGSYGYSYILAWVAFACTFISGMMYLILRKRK
Experimental: (§1) A comparison of anti-EMP2 Variant 1 and PG-101 binding affinity for EMP2 was carried out. […] PG-101 and Variant 1 binding to EMP2 was determined using SUM149 and flow cytometry. Variant 1 retains binding to EMP2 with improved affinity. Flow cytometry was used to determine the ability of both antibodies to bind to EMP2 on SUM149 cells.

[2] = molecular target: T1, Epithelial Membrane Protein 2 (EMP2); experiment: flow cytometry on SUM149 cells (FIG. 4)
Experimental: as §1

[3] = molecular target: T1, Epithelial Membrane Protein 2 (EMP2); experiment: flow cytometry on MDA-MB-468 cells (FIG. 2)

Kd [1]: 2.6 µg/mL
B1: PG-101 Parental (antibody, human IgG1, kappa, V domains shown)
VH: QVQLVQSGGGVVQPGRSLRLSCAASGFTFSSYAMHWVRQAPGKGLEWVAVISYDGSNKYYADSVKGRFTISRDNSKNTLYLQMNSLRAEDTAVYYCARDRRGRKSAGIDYWGQGTLVTVSS
VL: DIQMTQSPSSLSASVGDRVTITCQASQDISNYLNWYQQKPGKAPKLLIYAASSLQSGVPSRFSGSGSGTDFTLTISSLQPEDFATYYCLQDYNGWTFGQGTKVDIKR
notes: Full IgG1/kappa made in HEK293 cells; also called parental antibody

fold increase in binding against the parental antibody PG-101 [2]: > 2 fold
B2: PG-101 Variant 1 (antibody, human IgG1, kappa, V domains shown)
VH: B1 VH
VL: B1 VL with N93S
notes: Full IgG1/kappa made in HEK293 cells; also called anti-EMP2 Variant 1; PG-201

binding result [3]: binds
B3: PG-101 Variant 2 (antibody, human IgG1, kappa, V domains shown)
VH: B1 VH
VL: B1 VL with G94L
notes: Full IgG1/kappa made in HEK293 cells
